Data taken from the supplement of paper PMC9170038.

System: K4 kissing-loop RNA reporter
Assay: apparent KD of K4 kissing-loop reporter; higher = weaker reporter binding
Details: Eterna round: R107
Experimental: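 RNA-MaP round R107: designed RNA switches with theophylline, tryptophan, arginine or FMN aptamers are transcribed on-chip within common flanks. They are titrated with a labelled K4 kissing-loop RNA reporter in RNA-MaP buffer (100 mM Tris pH 7.5, 80 mM KCl, 4 mM MgCl2), without ligand or with the indicated ligand. Median apparent KD per design.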

[1] = input ligand: theophylline 20 uM
[2] = input ligand: tryptophan 2.4 mM
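Also: bound reporter read as fluorescence of individual clusters on recovered sequencing chips by microscopy, with normalized cluster intensities fitted with a binding model.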

Sequence	apparent KD of K4 kissing-loop reporter (input ligand: FMN 200 uM) [nM]	apparent KD of K4 kissing-loop reporter (input ligand: arginine 13.2 mM) [nM]	apparent KD of K4 kissing-loop reporter (input ligand: none) [nM]	apparent KD of K4 kissing-loop reporter [1] [nM]	apparent KD of K4 kissing-loop reporter [2] [nM]
CGCAAGCAGCCAGUGAUGUUGGCCGCCUUGCGAGGACCGGUACGGCCGCCACUCGAAGGCGGCUACUGGUAAACCGCCUAACGGA [Onzaenla]	93.3	83.6	92.9	85.4	96.4
CGCAAGCAGCCAGUGAUGUUGGCCGCCUUGCGAGGACCGGUACGGCCGCCACUCGAAGGCGGCUAGUAGUAGUCUGUCUAACGGA [KL-XTryp-A16]	104	107	112	74	184
CGCAAGCAGCCAGUGAUGUUGGCUGCCUUGCGAGGACCGGUACGGCCGCCACUCGAAGGCAGCUACUGGUAAACCGUCUAACGGA [Atere]	117	105	111	90.7	250
CGCAAUCGAACUGAUACCAGUCAUAAUGGCUGAGAAGCACGAGUGAUGUUCGUAACGAAUGACCCUUGGCAGCAGUUCGAUUGCG [Theo B SS t8]	706	807	944	330	839
CGCAGUGAUGUUGCGAACAUAAUGCAUUCAGAGGAUAUUCGUUUGGGAAGAAGGCUGAAUCGUUUUUCGAGUGAUGUUUGAGGAA [Same State FMN A GF 18]	106	88.2	114	91	94.6
CGCAGUGAUGUUGCGAGUAGAUACAGGGAAGGAGCGCCGUAGUAGGCAGGUAGGUCGCCCACGCAGUGAUGUUGCGUCAUAGGGU [Exclusion Arginine A GF 5]	104	91.8	97.1	116	87.6
CGCAGUGAUGUUGCGAGUAGCUACAGGGAAGGAGCGCGCUAGUGCGCAGGUAGGUCGCCCACGCAGUGAUGUUGCGUCAUAGGGU [Exclusion Arg A GF8]	139	114	114	137	109
CGCAGUGAUGUUGCUAUUAUUCUUGAUUAACGAGGACCGGUACGGCCGCCACUCGAUUUCUAUCUGAUCCAGUGUUUUGUUGAGU [#22 K4 Tryptophan A Exclusion]	296	364	396	360	182
CGCAGUGAUGUUGCUAUUAUUCUUGGUUAACGAGGACCGGUACGGCCGCCACUCGGUUUCUAUCUAAUCCAGUGUUUUUUUGAGU [#24 K4 Tryptophan A Exclusion]	425	506	556	573	246
CGCCGCAAGGCGAGCGCUCCCACUCCGGAAGGAGCGCCCGUAAGGGCAGGUAGGUCGCCGGAGUGAUGUUCCGGUGGAGGGCUCG [#2 Exclusion - Arginine A Attempt #14 (Inspired by Omei)]	226	224	469	33	184
CGCCGUAAGGCGAGCGCUCCCACUCCGGAAGGAGCGCCCGGAAGGGCAGGUAGGUCGCCGGAGUGAUGUUCCGGUGGAGGGCUCG [#2 Exclusion - Arginine A Attempt #12 (Inspired by Omei)]	229	144	282	221	317
CGCCGUAAGGCGGUCGCUCCCACUCCGGAAGGAGCGCCCGUAAGGGCAGGUAGGUCGCCGGAGUGAUGUUCCGGUGGAGGGACCG [#2 Exclusion - Arginine A Attempt #8 (Inspired by Omei)]	323	274	339	352	330
CGCGCGCGCUUGAGAGGGCGCGCGCGAAGUGAGGAUAUUUAGGGAGAAAGAAGGCACUAUAAAAUAUAGUGAUGUUAUAUAAGGG [SSFMNA.E]	1180	240	468	2790	441
CGCGCGCGUUGAGAGGCGCGCGCGAAUGAUACCAGUAUAUAAGAAUACCCUUGGCAGCAUAAGAAAGAUAUAGUGAUGUUGUAUA [SSTheophA.E]	67.3	264	293	466	188
CGCGCGCGUUUGAGAGGGCGCGCGCGAAGUGAGGAUAUUUAGGGAGAAAGAAGGCACUAUAAAAUAUAGUGAUGUUAUAUAAGGG [SSFMNA.F]	603	111	288	469	186
CGCUCGAAAAUUAAGUGAGUGAUGUUCACUCGAGGACCGGUACGGCCGCCACUCGUCUUACGUUGAGACACUGCUCGUACUCAUA [theeternabot_exclusion_KL_Trp_A_38]	683	674	900	722	498
CGGAUGUAGUGAUGUUAUAUAAGAUGUAGACGAGGACCGGUACGGCCGCCACUCGAAACGGCUACUAGCGCGUUGCGAGGUGUGC [ExTryptoA.CI]	952	460	960	674	514
CGGAUGUAGUGAUGUUAUAUUAGAUGUAGACGAGGACCGGUACGGCCGCCACUCGAAACGGCUGCUAGCGCGUUGCGAGGUGUGC [ExTryptoA.Ck]	341	525	1120	419	456
CGGAUGUAGUGAUGUUAUAUUAGAUGUAGACGAGGACCGGUACGGCCGCCACUCGUGAUGGCUGCUAGCACGUUUCGAUGUUUGC [ExTryptoA.Cq]	669	483	624	611	434
CGGCCCGGCGCGGCCGCCACUGUGCCUGGGCGCUUGCCGAGUGAUGUUCGUCGGCGGUCGGGUGGCAGGACCGGGCGCCGGUCCG [BDazzled - #26 SS Tryptophan B]	137	129	131	123	134
CGGCGCGGCGCGGCCGCCACUGCGCCUGGGUGCUCGCCGAGUGAUGUUCGUCGGCGGUUGGGUGGCAGGACCGGGUGCCGGCCCG [BDazzled - #18 SS Tryptophan B]	930	703	827	1030	768

Sequence	apparent KD of K4 kissing-loop reporter (input ligand: FMN 200 uM) [nM]	apparent KD of K4 kissing-loop reporter (input ligand: arginine 13.2 mM) [nM]	apparent KD of K4 kissing-loop reporter (input ligand: none) [nM]	apparent KD of K4 kissing-loop reporter [1] [nM]	apparent KD of K4 kissing-loop reporter [2] [nM]
CGGCUCACGCAAGGAUAUCGCAGUGAGUACUCUGGAAGAAUAAAGCUAGUGAUGUUAGGUUAGAAGCGAGAAGGUGCGGCCGUAU [theeternabot_sameState_KL_FMN_B_30]	126	96.5	128	197	137
CGGUAGUCUAUAGGGUCCAGUGAUGUUGGACAGGAUAUGCUACGCCGCAGAAGGGUCCAACUGGUUGUGAAGUUGGCUACUAGGC [Somaaxe]	144	200	168	147	189
CGUACGGUUUCUUUCUUUCCGUACGAGUGCCGAGGACCGGUACGGCCGCCACUCGCUACAGCCUAGUGAUGUUAGGCAUUUCUUU	104	110	105	146	94.1
CGUAGUUGGGCGGCCGCCACUUGAAAAGCUUUGCCAAAGGCAGAGCUCUAGAGUGAUGUUCUGGCAAGGACCGGGUCCAACUACA [#03 K4 Tryptophan B Same State]	869	719	872	590	358
CGUAGUUGGGCGGCCGCCACUUGAACAGCUUUGCCAAAGGCAGAGCUCUAGAGUGAUGUUCUGGCAAGGACCGGGUCCAACUACA [#02 K4 Tryptophan B Same State]	1270	777	1240	822	423
CUAGAAGUGAUGUUUCAUAGUAAAUCUGAUACCAGCAUUAAACCCUGCCCUUGGCAGCAGAAUGGGCUGAUAGACUCCUGCAGCU [theeternabot_sameState_KL_Theo_A_36]	220	199	228	208	182
CUAGGCCCUCGGCGGGACAUUGCGUGGGAAGGAGCGCAGAUAACUGCAGGUAGGUCGCCCAGUGAUGUUGGGCGAAUAUUGGUCA [Esinabige]	102	98.3	124	120	110
CUAUCCCGCCGUGUAUGUAGUAUACGGUGCCGAGGACCGGUACGGCCGCCACUCGAUAAGCUUUGUCGGAGUGAUGUUCCGACCG [Soleesen]	277	181	213	263	265
CUCGAGUGAUGUUCGAUUAUGUAUACAGAUACCAGUGAAUUUUAACACCCUUGGCAGCUGGUAGAAUCAUUUUAAUUUUAACUAG [JR_SSTheophyA_Sub021]	201	256	221	268	162
CUCGAGUGAUGUUCGAUUAUGUAUACAGAUACCAGUGAAUUUUAACACCCUUGGCAGCUGGUAGAAUCUUUGUAAUUUUAACUAG [JR_ExcTheophyA_Sub002]	162	253	180	230	134
CUCGAGUGAUGUUCGAUUAUUUAUACAGAUACCAGUGAAUUUUAACACCCUUGGCAGCUGGUUGUAUCUUUGUUUUUUACACAAG [JR_ExcTheophyA_Sub006]	117	177	118	172	107
CUCGUGGGUUUGAGAGGGCUUGUGGGAAGAUAGGAUAUCUAGGGAGGGAGAAGGAUCUAUAGAAUAUAGUGAUGUUAUAUAUGGG [#05 K4 FMN A Same State]	164	131	87.7	154	122
CUCGUGGGUUUGAGAGGGCUUGUGGGAAGUGAGGAUAUUUAGGGAGAAAGAAGGCACUAUAGAAUAUAGUGAUGUUAUAUAAGGG [SSFMNA.N]	314	95.7	200	273	212
CUCGUGGGUUUGGGAGGGCUUGUGGGAAGAUAGGAUAUCUAGGGAGGGAGAAGGAUCUAUAGAAUAUAGUGAUGUUAUAUAUGGG [SSFMNA.aA]	118	261	165	230	106
CUGAUGCUGAUGCGGCGGCCGGUGGUCGUGCGAGGACCGGUACGGCCGCCACUCGCGCGAGUGAUGUUCGCGCGUCGUCGUCGUC [First Shot]	120	91.4	114	76.9	117
CUGAUGCUGAUGCGGUGGCCGGUGGUCGUGCGAGGACCGGUACGGCCGCCACUCGCAUGAGUGAUGUUCAUGUGUCGUCGUCGUC [#04 K4 Tryptophan A Exclusion]	204	133	169	164	172
CUGGGUUGACGAAAAGUCAACAAAAGAGAAGGAGCGCACGAAAGUGCAGGUAGGUCGCUCAAUCCAGUGAUGUUGGGUCAUCCAG [#SwitchBubble 14 #K4Late]	568	580	800	1110	869
CUGGGUUGACGAAAAGUCAACAAAAGAGAAGGAGCGCACGAAAGUGCAGGUAGGUCGCUCAAUCCAGUGAUGUUGGGUCGUCCAG [#OpenEnded 11 #K4Late]	279	192	284	285	222
CUGGUGCUGAUGCGGUGGCCGGUGGUCGUGCGAGGACCGGUACGGCCGCCACUCGCAUGAGUGAUGUUCAUGUGUCGUCGUCGUC [whbob_EX_Tryp_A_t1]	212	134	181	176	217
CUGGUUCAGUGAUGUUGGAAGGUUUAGGUGAAGGAUAUAUUGCAUAAUAGAAGGUCACGGCCAUGCAAUUAUUAACGUAGCCUGU [theeternabot_exclusion_KL_FMN_A_3]	279	114	172	126	158
CUGUCCUACGAAGGAUAUGCUGAUGGGAUCAAACAGUGAUGUUGUUAUGAACUUAGGCUUAUGUGCGCAGAAGGUCGUGGCGACG [theeternabot_sameState_KL_FMN_B_42]	236	396	264	801	546
